This passage reports binding result and Ki results from publication PMC4996978, “A MUB E2 structure reveals E1 selectivity between cognate ubiquitin E2s in eukaryotes” (Nature Communications, 2016).

The target in one assay is T1, GST-AtUBC8 (Arabidopsis thaliana, UniProt P35131 1-148).
T1 construct: Arabidopsis thaliana ubiquitin-conjugating enzyme E2 8 (AtUBC8); also called GST-tagged AtUBC8; source: E. coli Rosetta 2 (DE3) pLacI, soluble extract fraction immobilized on GSH resin and washed
Put plainly: pull-down; GST-AtUBC8 immobilized on GSH resin; equimolar His-tagged AtMUB3, AtMUB3 mutants and Ub incubated separately for 15 min; washed three times with sonication buffer (50 mM Tris-HCl pH 7.5, 300 mM NaCl, 10% glycerol, 10 mM imidazole); immunoblot. Particulars: both partners purified.

The target of the next assay is T2, biotinylated E2 (Ube2D3) (human, UniProt P61077 1-147, biotin).
T2 construct: human ubiquitin-conjugating enzyme E2 D3 (Ube2D3), biotinylated, labelled with streptavidin-terbium in the assay; source: reagents adapted from the E1/E2 Lite kit (LifeSensors, Malvern, PA)
The experiment in a line: inhibition of E2 activation (HTRF-FRET E2∼Ub formation assay); 1 nM E1 (HsUBE1), 10 μM Mg-ATP, 50 nM Ub-fluorescein, 0.9 nM streptavidin-terbium, 5 nM biotinylated Ube2D3; 50 mM Tris-HCl pH 7.5, 5 mM MgCl2, 0.05% CHAPS; HsMUB pre-incubated with E2 for 15 min; initial velocity against HsMUB concentration fit to a one-site binding model; IC50 equivalent to Ki. Particulars: both partners purified.

T1 sequence (P35131 whole entry): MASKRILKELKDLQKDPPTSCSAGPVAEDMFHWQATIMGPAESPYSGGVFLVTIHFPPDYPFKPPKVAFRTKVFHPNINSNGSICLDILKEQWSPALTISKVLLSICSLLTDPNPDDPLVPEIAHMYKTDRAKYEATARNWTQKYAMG
T2 sequence (P61077 whole entry): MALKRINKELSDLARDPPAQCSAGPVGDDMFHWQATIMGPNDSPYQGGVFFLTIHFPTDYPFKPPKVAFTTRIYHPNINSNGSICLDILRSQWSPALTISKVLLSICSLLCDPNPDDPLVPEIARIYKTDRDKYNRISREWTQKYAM

B1: AtMUB3-His (natural protein, Arabidopsis thaliana, UniProt Q9SW27 1-118, looked up)
chain: MPEEESIDIKFRLYDGSDIGPFRYSAASTVDFLKQRVVSDWPKGKTVVPKGINEVKLISSGKILENNKTVGQCKTPFGDIAGGVIVMHVVVQPSLAKSKTEKKVDKAPKAVICTCTIL
notes: coding region cloned without stop codon into pET28b; also called His-tagged AtMUB3; not shown: His6, C-terminal, kept
As for B1, the binding result with GST-AtUBC8 is given as “binds”.

B2: AtMUB3 P76A F77A G78A D79A I80A (All A) (natural protein, Arabidopsis thaliana)
chain: MPEEESIDIKFRLYDGSDIGPFRYSAASTVDFLKQRVVSDWPKGKTVVPKGINEVKLISSGKILENNKTVGQCKTAAAAAAGGVIVMHVVVQPSLAKSKTEKKVDKAPKAVICTCTIL
notes: Generated by bridging-PCR and cloned into pET28b; also called AtMUB3 All A LBL mutant; AtMUB3 with the core LBL residues ProPheGlyAspIle all converted to alanines
On to B2, for which, in the assay with GST-AtUBC8, the binding result is given as “binds”.

B3: HsMUB (natural protein, human, UniProt O95164 1-117, looked up)
chain: MSSNVPADMINLRLILVSGKTKEFLFSPNDSASDIAKHVYDNWPMDWEEEQVSSPNILRLIYQGRFLHGNVTLGALKLPFGKTTVMHLVARETLPEPNSQGQRNREKTGESNCCVIL
notes: Homo sapiens membrane-anchored ubiquitin-fold protein (HsMUB); coding region cloned without stop codon into pET28b; also called human homologue of MUB; source: E. coli Rosetta 2 (DE3) pLacI, purified
With B3, the Ki with biotinylated E2 (Ube2D3) is 220 ± 16 nM.
